Assay results reported in patent US20180346564A1 (TEIJIN PHARMA, published 2018).
[ ]: non-standard residue; d: D form. pT = C[C@@H](OP(=O)(O)O)[C@H](N)C(=O)O; pS = N[C@@H](COP(=O)(O)O)C(=O)O

Legend:
[1] = target: T1, Peptide No. 8, pS412, H-NV(pS)STGSC-OH (human, SMILES CC(C)[C@H](NC(=O)[C@@H](N)CC(N)=O)C(=O)N[C@@H](COP(=O)(O)O)C(=O)N[C@@H](CO)C(=O)N[C@H](C(=O)NCC(=O)N[C@@H](CO)C(=O)N[C@@H](CS)C(=O)O)[C@@H](C)O); assay: ELISA, coated peptide
T1 peptide: H-NV[pS]STGSC-OH
How it was run: (§1)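 Peptides, or their bovine serum albumin or keyhole limpet hemocyanin conjugates, at 1 μg/mL in cold PBS were coated at 50 μL/well overnight at 4 °C, then blocked with 3% BSA-PBS overnight at 4 °C. Purified antibody at 150 ng/mL in 3% BSA-PBS was bound for 90 minutes at room temperature, followed by alkaline phosphatase-labelled goat anti-human IgG (H+L) (2000-fold, 60 minutes). Binding was read as absorbance at 405 nm (reference 550 nm) after 40 minutes of pNPP development.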

[2] = target: T2, Peptide No. 1, pS46, H-GLKE(pS)PLQT-OH (human, SMILES CC(C)C[C@H](NC(=O)CN)C(=O)N[C@@H](CCCCN)C(=O)N[C@@H](CCC(=O)O)C(=O)N[C@@H](COP(=O)(O)O)C(=O)N1CCC[C@H]1C(=O)N[C@@H](CC(C)C)C(=O)N[C@@H](CCC(N)=O)C(=O)N[C@H](C(=O)O)[C@@H](C)O); assay: ELISA, coated peptide
T2 peptide: H-GLKE[pS]PLQT-OH
How it was run: as §1

[3] = target: T3, Peptide No. 5, pT217, H-GC-GSRSRTPSLP(pT)PPTREPKKVAVV-OH (human, phosphothreonine (pT) at peptide position 13 (tau Thr217)); assay: ELISA, coated peptide
T3 peptide: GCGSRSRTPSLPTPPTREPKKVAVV
How it was run: as §1

[4] = target: T4, Peptide No. 3, pS202, H-SSPG(pS)PGTPC-OH (human, SMILES C[C@@H](O)[C@H](NC(=O)CNC(=O)[C@@H]1CCCN1C(=O)[C@H](COP(=O)(O)O)NC(=O)CNC(=O)[C@@H]1CCCN1C(=O)[C@H](CO)NC(=O)[C@@H](N)CO)C(=O)N1CCC[C@H]1C(=O)N[C@@H](CS)C(=O)O); assay: ELISA, coated peptide
T4 peptide: H-SSPG[pS]PGTPC-OH
How it was run: as §1

[5] = target: T5, Peptide No. 7, pS396/pS400/pS404, H-GC-RENAKAKTDHGAEIVYK(pS)PVV(pS)GDT(pS)PRHL-OH (human, phosphoserine (pS) at peptide positions 20, 24 and 28 (tau Ser396, Ser400, Ser404)); assay: ELISA, coated peptide
T5 peptide: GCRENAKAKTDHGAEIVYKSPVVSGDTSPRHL
How it was run: as §1

[6] = target: T6, Peptide No. 6, pT231, H-KVAVVR(pT)PPKSPS-OH (human); assay: ELISA, coated peptide
T6 peptide: H-KVAVVR[pT]PPKSPS-OH
How it was run: as §1

[7] = target: T7, Peptide No. 4, pT212/pS214, H-GCGSPGTPGSRSR(pT)P(pS)LPTPPTREPK-OH (human, phosphothreonine (pT) at peptide position 14 (tau Thr212); phosphoserine (pS) at peptide position 16 (tau Ser214)); assay: ELISA, coated peptide
T7 peptide: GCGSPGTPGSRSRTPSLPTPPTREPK
How it was run: as §1

[8] = target: T8, Peptide No. 2, pS199, H-SGYS(pS)PGSPGC-OH (human, SMILES N[C@@H](CO)C(=O)NCC(=O)N[C@@H](Cc1ccc(O)cc1)C(=O)N[C@@H](CO)C(=O)N[C@@H](COP(=O)(O)O)C(=O)N1CCC[C@H]1C(=O)NCC(=O)N[C@@H](CO)C(=O)N1CCC[C@H]1C(=O)NCC(=O)N[C@@H](CS)C(=O)O); assay: ELISA, coated peptide
T8 peptide: H-SGYS[pS]PGSPGC-OH
How it was run: as §1

[9] = target: T9, His-tagged non-phosphorylated tau protein 4R0N (human, UniProt P10636 2-758); assay: SPR Biacore T200, antigen immobilized
T9 construct: Produced by Escherichia coli; negative control in SPR; also called ATGen Cat. No. ATGP0795
T9 sequence (P10636 other isoform, or with tags, fused parts or gaps limits assumed): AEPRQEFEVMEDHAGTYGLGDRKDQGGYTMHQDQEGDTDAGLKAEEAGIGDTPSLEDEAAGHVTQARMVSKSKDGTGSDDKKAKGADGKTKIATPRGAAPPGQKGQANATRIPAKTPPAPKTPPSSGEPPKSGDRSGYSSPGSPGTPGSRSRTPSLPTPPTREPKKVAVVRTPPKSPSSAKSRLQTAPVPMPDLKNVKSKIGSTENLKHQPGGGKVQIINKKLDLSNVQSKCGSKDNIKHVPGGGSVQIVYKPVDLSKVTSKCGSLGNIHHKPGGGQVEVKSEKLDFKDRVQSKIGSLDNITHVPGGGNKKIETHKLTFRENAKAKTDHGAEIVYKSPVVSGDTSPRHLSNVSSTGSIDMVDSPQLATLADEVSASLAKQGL
Method: The binding affinities of the hyperphosphorylated tau protein 4R2N (hpTau), non-phosphorylated tau protein 4R0N, monophosphorylated tau peptide 1×P, triphosphorylated tau peptide 3×P, and non-phosphorylated tau peptide Non P with each antibody were measured with an SPR system Biacore T200 (GE Healthcare Japan), in accordance with the instruction manual for evaluation attached to the system.
The His-tagged hpTau or Tau proteins were each immobilized on a sensor chip using an HBS-N buffer (code No. BR-1003-69) as the immobilization reaction solution and allowing a nickel chloride solution to react with the NTA sensor chip for bonding Ni to NTA. Subsequently, the sensor chip was activated with a mixed solution of N-ethyl-N′-(3-dimethylaminopropyl)-carbodiimide hydrochloride (1-ethyl-3-(3-dimethylaminopropyl)carbodiimide hydrochloride: EDC) and N-hydroxysuccinimide (NHS). A solution of each of the His-tagged proteins, adjusted to a concentration of 100 to 500 ng/mL with a 4-(2-hydroxyethyl)-1-piperazineethanesulfonic acid (HEPES) buffer (0.01 M HEPES, 150 mM KCl, 2 mM DTT, 1 mM EDTA, pH 7.2), was applied to the sensor chip, whereby the protein was immobilized on the sensor chip through covalent bonds with the Ni-NTA. The remaining active NHS was blocked with ethanolamine, and Ni ions were removed with an EDTA solution (Ni-affinity amine coupling: see International Publication No. WO2005/022156). The antigen peptides (1×P, 3×P, and Non P) were each immobilized on a sensor chip by activating the NTA sensor chip with a mixed solution of N-ethyl-N′-(3-dimethylaminopropyl)-carbodiimide (EDC) hydrochloride and N-hydroxysuccinimide (NHS), and then applying a solution of the antigen peptide diluted with a 10 mM sodium acetate buffer (pH: 4 to 4.5) to 1 to 10 μM to the sensor chip, whereby the peptide was covalently bound to the sensor chip. The remaining active NHS was blocked with ethanolamine. Thus, sensor chips immobilized respectively with the proteins and peptides mentioned above were produced.
A CAPS buffer (pH 10.5) was applied to these sensor chips at 37° C. to stabilize the protein- or peptide-immobilized surfaces of the sensor chips.

B1: humanized antibody L48H47 (antibody, human IgG1, kappa, V domains shown)
VH: EVQLVESGGGLVQPGGSLRLSCAASGFAFNSFALNWVRQAPGKGLEWVGHIRSKTNNYATFYAASVKDRFTVSRDDSQNTAYLQMNSLKTEDTATYYCVRRGPRDSWFGYWGQGTLVTVSS
VL: DIVMTQSPLSLPVTLGDPASISCRSSQNIVHSNGNTYLEWYQQKPGQSPQLLIYTVSNRFSGVPDRFSGSGSGTDFTLKISRVEAEDLGVYYCFQGSHLPLTFGGGTKVEIKR
notes: VL48/VH47, human IgG1/kappa
B1: no binding (tested: OD value <0.5; antibody 150 ng/mL) [1]; no binding (tested: OD value <0.5; antibody 150 ng/mL) [2]; no binding (tested: OD value <0.5; antibody 150 ng/mL) [3]. B1: no binding (tested: OD value <0.5; antibody 150 ng/mL) [4]; no binding (tested: OD value <0.5; antibody 150 ng/mL) [5]; no binding (tested: OD value <0.5; antibody 150 ng/mL) [6]. B1: no binding (tested: OD value <0.5; antibody 150 ng/mL) [7]; no binding (tested: OD value <0.5; antibody 150 ng/mL) [8]; no binding (tested: 0.2 to 1 nM) [9].

B2: humanized antibody L48H62 (antibody, human IgG1, kappa, V domains shown)
VH: EVQLVESGGGLVQPGGSLRLSCAASGFAFNSFALNWVRQAPGKGLEWVVHIRSKTNNYATFYADSVKDRFTVSRDDSKNTAYLQMNSLKTEDTATYYCVRRGPRDSWFGYWGQGTLVTVSS
VL: DIVMTQSPLSLPVTLGDPASISCRSSQNIVHSNGNTYLEWYQQKPGQSPQLLIYTVSNRFSGVPDRFSGSGSGTDFTLKISRVEAEDLGVYYCFQGSHLPLTFGGGTKVEIKR
notes: VL48/VH62, human IgG1/kappa
B2: no binding (tested: OD value <0.5; antibody 150 ng/mL) [1]; no binding (tested: OD value <0.5; antibody 150 ng/mL) [2]; no binding (tested: OD value <0.5; antibody 150 ng/mL) [3]. B2: no binding (tested: OD value <0.5; antibody 150 ng/mL) [4]; no binding (tested: OD value <0.5; antibody 150 ng/mL) [5]; no binding (tested: OD value <0.5; antibody 150 ng/mL) [6]. B2: no binding (tested: OD value <0.5; antibody 150 ng/mL) [7]; no binding (tested: OD value <0.5; antibody 150 ng/mL) [8]; no binding (tested: 0.2 to 1 nM) [9].

B3: humanized antibody L48H61 (antibody, human IgG1, kappa, V domains shown)
VH: EVQLVESGGGLVQPGGSLRLSCAASGFTFNSFALNWVRQAPGKGLEWVVHIRSKTNNYATFYADSVKDRFTVSRDDSKNTAYLQMNSLKTEDTATYYCVRRGPRDSWFGYWGQGTLVTVSS
VL: DIVMTQSPLSLPVTLGDPASISCRSSQNIVHSNGNTYLEWYQQKPGQSPQLLIYTVSNRFSGVPDRFSGSGSGTDFTLKISRVEAEDLGVYYCFQGSHLPLTFGGGTKVEIKR
notes: VL48/VH61, human IgG1/kappa
B3: no binding (tested: OD value <0.5; antibody 150 ng/mL) [1]; no binding (tested: OD value <0.5; antibody 150 ng/mL) [2]; no binding (tested: OD value <0.5; antibody 150 ng/mL) [3]. B3: no binding (tested: OD value <0.5; antibody 150 ng/mL) [4]; no binding (tested: OD value <0.5; antibody 150 ng/mL) [5]; no binding (tested: OD value <0.5; antibody 150 ng/mL) [6]. B3: no binding (tested: OD value <0.5; antibody 150 ng/mL) [7]; no binding (tested: OD value <0.5; antibody 150 ng/mL) [8]; no binding (tested: 0.2 to 1 nM) [9].

B4: humanized antibody L50H11 (antibody, human IgG1, kappa, V domains shown)
VH: EVQLVESGGGLVQPGGSLRLSCAASGFTFSSFALNWVRQAPGKGLEWVGHIRSKTNNYATFYAASVKDRFTVSRDDSQNTAYLQMNSLKTEDTATYYCVRRGPRDSWFGYWGQGTLVTVSS
VL: DIVMTQSPLSLPVTLGDPASISCRSSQNIVHSNGNTYLEWYQQKPGQSPRLLIYTVSNRFSGVPDRFSGSGSGTDFTLKISRVEAEDLGVYYCFQGSHLPLTFGGGTKVEIKR
notes: VL50/VH11, human IgG1/kappa
B4: no binding (tested: OD value <0.5; antibody 150 ng/mL) [1]; no binding (tested: OD value <0.5; antibody 150 ng/mL) [2]; no binding (tested: OD value <0.5; antibody 150 ng/mL) [3]. B4: no binding (tested: OD value <0.5; antibody 150 ng/mL) [4]; no binding (tested: OD value <0.5; antibody 150 ng/mL) [5]; no binding (tested: OD value <0.5; antibody 150 ng/mL) [6]. B4: no binding (tested: OD value <0.5; antibody 150 ng/mL) [7]; no binding (tested: OD value <0.5; antibody 150 ng/mL) [8]; no binding (tested: 0.2 to 1 nM) [9].

B5: humanized antibody L48H64 (antibody, human IgG1, kappa, V domains shown)
VH: EVQLVESGGGLVQPGGSLRLSCAASGFTFNSFALNWVRQAPGKGLEWVVHIRSKTNNYATFYAASVKDRFTVSRDDSQNTAYLQMNSLKTEDTATYYCVRRGPRDSWFGYWGQGTLVTVSS
VL: DIVMTQSPLSLPVTLGDPASISCRSSQNIVHSNGNTYLEWYQQKPGQSPQLLIYTVSNRFSGVPDRFSGSGSGTDFTLKISRVEAEDLGVYYCFQGSHLPLTFGGGTKVEIKR
notes: VL48/VH64, human IgG1/kappa
B5: no binding (tested: OD value <0.5; antibody 150 ng/mL) [1]; no binding (tested: OD value <0.5; antibody 150 ng/mL) [2]; no binding (tested: OD value <0.5; antibody 150 ng/mL) [3]. B5: no binding (tested: OD value <0.5; antibody 150 ng/mL) [4]; no binding (tested: OD value <0.5; antibody 150 ng/mL) [5]; no binding (tested: OD value <0.5; antibody 150 ng/mL) [6]. B5: no binding (tested: OD value <0.5; antibody 150 ng/mL) [7]; no binding (tested: OD value <0.5; antibody 150 ng/mL) [8]; no binding (tested: 0.2 to 1 nM) [9].
